For 1 molecule, Kd results are on record in article PMC10511788, “Solution structure of the HOIL-1L NZF domain reveals a conformational switch regulating linear ubiquitin affinity” (The Journal of Biological Chemistry, 2023).

The target of this assay is T1, M1-linked di-ubiquitin (UniProt P0CG48 1-76; P0CG48 1-76).
T1 construct: ubiquitin, distal (N-terminal) moiety, M1-G76, its G76 joined by a peptide bond to M1 of the next moiety; ubiquitin, proximal (C-terminal) moiety, M1-G76, with the free C-terminal carboxylate; Two ubiquitin units head to tail on one chain; also called linear di-Ub; linear (head-to-tail) di-Ub
As to the kind of experiment: ITC; 298 K, MicroCal iTC200; linear di-Ub (1 mM) in the syringe, HOIL-1L NZF (100 uM) in the cell (several experiments at half of these); 20 mM HEPES pH 7.0, 50 mM sodium chloride, 1 mM TCEP; one set of sites model; three independent experiments. Conditions: both partners purified.

By Kd is commonly meant a measure of binding affinity in units of concentration.

B1: mouse HOIL-1L NZF domain (residues Pro192-Gln250) T207D (domain or fragment)
chain: GPLGSPEPVGWQCPGCTFINKPDRPGCEMCCRARPETYQIPASYQPDEEERARLAGEEEALRQYQQ
notes: HOIL-1L, mouse, NZF domain with tail, residues Pro192-Gln250, point mutant T207D; Point mutation made by PCR on the plasmid of m1; also called phosphomimetic HOIL-1L NZF; T207D HOIL-1L NZF; source: E. coli, autoinduction in N-5052 media, purified; not shown: GST, N-terminal, cleaved
Turning to B1, the Kd was 10.3 µM.
